Laboratory results reported in US20200239570A1 (CRESCENDO BIOLOGICS, published 2020).
Where a chain is given by its changes, count along the chain named. Values belong to the binder of their own block, whether it stands above or below them.

Columns and labels:
[1] = target: human PD-1 expressed on cells (CHO human PD-1 cells) (human) (UniProt Q15116)
[2] = target: T1, recombinant human PD-1 Fc chimera (human, UniProt Q15116 25-167); experiment: SPR (Biacore T200), PD-1-huFc amine-coupled to CM5, single cycle kinetics, 1:1 fit
T1 construct: Bought (R&D 1086-PD); Labelled with europium cryptate in the PD-L2 HTRF assay; also called human PD-1 (R&D Systems cat no. 1086-PD); human PD-1-huFc; not shown: human Fc of the bought chimera
Description: Binding kinetics of certain VH single domain antibodies binding to human PD-1-huFc were measured by surface plasmon resonance (SPR) technology using Biacore T200 instrument (GE Healthcare). Recombinant human PD-1-huFc was immobilized by standard amine coupling to CM5 sensorschip (GE Healthcare) using 0.01 mg/ml solution of antigen in 10 mM sodium acetate at pH 5.5. For the reference flow cell, a blank immobilisation was carried out. Single cycle kinetics assays were used to study the interaction, a five point, three-fold dilution series of each Humabody® was made with a top concentration of 30 nM. The binding kinetics were followed by flowing the Humabody® over the chip surface in HBS EP+ buffer at a flow rate of 30 μl/min. The contact time for each of the association steps was 180 seconds and the dissociation step was varied between 1200-3600 seconds. The data was fitted to a 1:1 binding model after double reference subtraction using the Biacore T200 Evaluation software.

[3] = target: T2, human PD-1 expressed on cells (CHO human PD-1 cells) (human, UniProt Q15116 21-288); experiment: FMAT epitope competition on CHO human PD-1 cells; competitor 2 nM 1.1-Strep tagged protein
T2 construct: CHO cells in the FMAT assays; Jurkat reporter cells in the reporter assay; primary CD4+ T cells in the mixed lymphocyte reaction; also called CHO TREX human PD1 cell line; CHO PD-1
Description: (§1) For the epitope competition assay reagents were prepared in FMAT assay buffer. […] Plates were incubated for a minimum of 1.5 hours at room temperature then fluorescence measured in the FL2 (502 nm-537 nm) and FL5 (677-800 nm) channels on the Mirrorball plate reader (TTP) following excitation at 488 nm and 640 nm. Data was expressed as a % of the total binding control (i.e. % control) after subtraction of the background signal determined from the non-specific binding control wells.

[4] = target: T1, recombinant human PD-1 Fc chimera; experiment: BLI (Octet), PD-1-huFc on biosensor, 1:1 fit
Description: Binding kinetics of clones to human PD-1-huFc were measured in real-time bio-layer interferometer based biosensor Octet (ForteBio). Recombinant human PD-1-huFc was either immobilized by standard amine coupling to amine reactive biosensors in 10 mM sodium acetate at pH 5.0 or capture by protein G biosensors (ForteBio). All the binding studies were performed in HBS-ET Octet kinetics buffer. Biosensors were always washed in Octet kinetics buffer in between different steps. A seven point, two-fold dilution series of each Humabody® VH was made with a top concentration in range 100-30 nM. The contact time for each of the association steps was varied between 180-300 seconds and the dissociation step was varied between 400-600 seconds. Kinetic association (kₐ) and dissociation (kd) rate constants were determined by processing and fitting the data to a 1:1 binding model using ForteBio Analysis software.

[5] = target: T2, human PD-1 expressed on cells (CHO …); experiment: FMAT binding assay on CHO human PD-1 cells, detection by anti-His
Text: Plates were read in the FL2 (502 nm-537 nm) and FL5 (677-800 nm) channels on the TTP Mirrorball plate reader following excitation at 488 nm and 640 nm. Data was gated on FL5 perimeter and peak intensity and the FL2 median mean fluorescence intensity of the gated data used for determination of VH binding.

[6] = target: T2, human PD-1 expressed on cells (CHO …); experiment: FMAT, His-tagged VH on CHO human PD-1 cells
[7] = target: T2, human PD-1 expressed on cells (CHO …); experiment: FMAT epitope competition on CHO human PD-1 cells; competitor 2 nM 2.1-Strep tagged protein
Description: as §1

[8] = target: T3, mouse PD1 (R&D Systems cat no. 1021-PD) (mouse, UniProt Q02242 25-167); experiment: HTRF binding assay, 2 nM mouse PD-1
T3 construct: bought recombinant protein; also called mouse PD-1 protein
T3 sequence (looked up): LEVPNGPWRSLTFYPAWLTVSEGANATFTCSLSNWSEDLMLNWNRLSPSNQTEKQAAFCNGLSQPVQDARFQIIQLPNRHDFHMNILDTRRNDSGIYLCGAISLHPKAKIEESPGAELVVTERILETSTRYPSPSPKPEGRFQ

[9] = target: T4, cynomolgus PD-1 (Acro Biosystems cat no. PD1-C5254) (cynomolgus, UniProt B0LAJ3 25-170); experiment: HTRF binding assay, His-tagged VH on 2 nM recombinant PD-1
T4 construct: bought recombinant protein; also called cyno PD-1; cynomolgus PD-1 recombinant protein; not shown: Human Fc tag of the vendor's construct, and any linker to it; The Fc is implied by detection with anti human-Fc cryptate
Description: (§2) Purified VH were tested for their ability to bind to human PD-1 (R&D Systems cat no. 1086-PD), cynomolgus PD-1 (Acro Biosystems cat no. PD1-C5254) and mouse PD1 (R&D Systems cat no. 1021-PD) in an HTRF Binding assay format. All reagents and serially diluted VH were prepared in assay buffer containing PBS, 0.1% BSA and 0.4M Potassium Fluoride. Samples or assay buffer (non-specific binding) were incubated with 2 nM human/cynomolgus or mouse PD-1, 1 nM Anti human-Fc Cryptate PAb (Cisbio cat. no. 61HFCKLB) and 30 nM anti His-D2 (CisBio cat no 61HISDLA) in black 384-shallow well assay plates for a minimum of 3 hours at room temperature. Time-resolved fluorescent emission at 620 nm and 665 nm was measured following excitation at 337 nm on the BMG PHERAstar plate reader. The HTRF ratio were calculated ((665 nm emission/620 nm emission)*10000) and the data corrected for (non-specific binding) to give the specific binding signal.

[10] = target: T1, recombinant human PD-1 Fc chimera; experiment: as above
Description: as §2

T2 sequence (Q15116 21-288): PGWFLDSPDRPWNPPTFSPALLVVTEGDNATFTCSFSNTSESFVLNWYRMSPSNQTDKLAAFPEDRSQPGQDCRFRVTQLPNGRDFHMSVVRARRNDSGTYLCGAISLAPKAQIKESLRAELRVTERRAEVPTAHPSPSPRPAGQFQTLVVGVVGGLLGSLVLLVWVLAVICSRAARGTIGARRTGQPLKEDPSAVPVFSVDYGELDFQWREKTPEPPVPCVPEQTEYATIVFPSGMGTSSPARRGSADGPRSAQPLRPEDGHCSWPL
T1 sequence (Q15116 25-167, change not shown): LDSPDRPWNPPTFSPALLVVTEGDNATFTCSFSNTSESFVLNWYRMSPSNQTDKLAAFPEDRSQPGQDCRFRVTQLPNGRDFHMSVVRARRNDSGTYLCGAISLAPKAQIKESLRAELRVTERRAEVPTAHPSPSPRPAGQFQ
T4 sequence (B0LAJ3 entry or part of it limits assumed): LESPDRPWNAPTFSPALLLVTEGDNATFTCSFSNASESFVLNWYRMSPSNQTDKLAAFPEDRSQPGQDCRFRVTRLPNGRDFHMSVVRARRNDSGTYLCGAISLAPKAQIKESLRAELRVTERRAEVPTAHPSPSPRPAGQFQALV
Sequence of human PD-1 expressed on cells (CHO human PD-1 cells) (human) (Q15116 21-288): as the sequence (Q15116 21-288) above

EC50 (read off the curve), NFAT-luciferase reporter [1]: 2 nM
B1: Blocking VH-4GS-1.39 (protein, part only; not given: 4GS linker, part only)
VH(A)-linker-VH, part: EVQLVESGGGLVKPGGSLRLSCAASGFTFSDESMTWMRQAPGKGLEWVSYISSGGGVKFYADSVKGRFTISRDNAKNSLYLQMNSLRAEDTAVYYCAREAPLRLGESPHDAFDISGQGTMVTVSSEVQLVESGGGLVQPGRSLRLSCAASGFTFDDYALHWVRQAPGKDLEWVSGISWNGGSYGYADSVKGRFTISRDNAKNSLYLQMNSLRAEDTALYYCVREKGPGLTGSTADYYGLDAWGQGTMVTVSS

EC50 (read off the curve), NFAT-luciferase reporter [1]: 1 nM
B2: Blocking VH-4GS-2.12 (protein, part only; not given: 4GS linker, part only)
VH(A)-linker-VH, part: EVQLVESGGGLVKPGGSLRLSCAASGFTFSDESMTWMRQAPGKGLEWVSYISSGGGVKFYADSVKGRFTISRDNAKNSLYLQMNSLRAEDTAVYYCAREAPLRLGESPHDAFDISGQGTMVTVSSEVQLVESGGGVVRPGGSLRLSCAASGFTFDDYAMSWVRQAPGKGLEWVSGITWNAGSTGYADSVKGRFTISRDNAKNSLYLQMNSLRAEDTALYYCVRDKYSYAWSYDDFDIWGQGTMVTVSS

Kd [2]: 7.94 nM
koff [2]: 0.00211 s⁻¹
kon [2]: 265000 M⁻¹ s⁻¹
IC50 [3]: 8 nM
B3: Humabody VH 1.26 (VHH)
VHH: EVQLVESGGGLVQPGRSLRLSCAASGFTFDDYAMHWVRQAPGKDLEWVSGISWNGGSMGYADSVKGRFTISRDNAKNSLYLQMNSLRAEDTALYYCVREKGPGLTGSTADYYGLDAWGQGTMVTVSS
notes: human VH single domain antibody

Kd [2]: 14.3 nM
koff [2]: 0.00229 s⁻¹
kon [2]: 160000 M⁻¹ s⁻¹
B4: Humabody VH 1.50 (VHH)
VHH: B3 VHH with M34F, G55A, M58Q
notes: as for B3

Kd [2]: 9.1 nM
koff [2]: 0.00204 s⁻¹
kon [2]: 224000 M⁻¹ s⁻¹
B5: Humabody VH 1.44 (VHH)
VHH: B3 VHH with M34L, G55S, M58Y
notes: as for B3

Kd [2]: 5.98 nM
koff [2]: 0.00145 s⁻¹
kon [2]: 243000 M⁻¹ s⁻¹
B6: Humabody VH 1.40 (VHH)
VHH: B3 VHH with M34L, M58Q
notes: as for B3

Kd [2]: 10.2 nM
koff [2]: 0.00254 s⁻¹
kon [2]: 248000 M⁻¹ s⁻¹
B7: Humabody VH 1.47 (VHH)
VHH: B3 VHH with M34F, G55S, M58Y
notes: as for B3

Kd [2]: 16.2 nM
koff [2]: 0.00291 s⁻¹
kon [2]: 180000 M⁻¹ s⁻¹
B8: Humabody VH 1.48 (VHH)
VHH: B3 VHH with M34L, G55S, M58Q
notes: as for B3

Kd [4]: 2 nM
koff [4]: 0.00074 s⁻¹
kon [4]: 370000 M⁻¹ s⁻¹
IC50 [3]: 2.5 nM
B9: Humabody VH 1.33 (VHH)
VHH: B3 VHH with M58Y
notes: as for B3

Kd [4]: 5.5 nM
koff [4]: 0.0013 s⁻¹
kon [4]: 240000 M⁻¹ s⁻¹
IC50 [3]: 7.5 nM
B10: Humabody VH 1.37 (VHH)
VHH: B3 VHH with M34F
notes: as for B3

Kd [4]: 3.6 nM
koff [4]: 0.0007 s⁻¹
kon [4]: 190000 M⁻¹ s⁻¹
IC50 [3]: 6.5 nM
B11: Humabody VH 1.34 (VHH)
VHH: B3 VHH with M58Q
notes: as for B3

EC50 (read off the curve) [5]: ~700 pM
B12: 1.21 (VHH)
VHH: B3 VHH with D62A, A116V
notes: also called VH single domain antibody 1.21; Humabody VH 1.21

EC50 [6]: 0.7 nM
Kd [4]: 2.6 nM
koff [4]: 0.0015 s⁻¹
kon [4]: 590000 M⁻¹ s⁻¹
IC50 [3]: 9.2 nM
IC50 [7]: 9.4 nM
binding result [8]: no binding
EC50 [9]: 6.3 nM
EC50 [10]: 3.3 nM
B13: VH single domain antibody 2.1 (VHH)
VHH: EVQLVESGGGVVRPGGSLRLSCAASGFTFDDYAMSWVRQAPGKGLEWVSGITWNGGSTGYADSVKDRFTISRDNAKNSLYLQMNSLRAEDTALYYCVRDKYSYAWSYDGFDIWGQGTMVTVSS
notes: human VH single domain antibody; also called Humabody VH 2.1; clone 2.1

Kd [4]: 16 nM
koff [4]: 0.017 s⁻¹
kon [4]: 1e+06 M⁻¹ s⁻¹
IC50 [3]: 7 nM
IC50 [7]: 14 nM
B14: Humabody VH 2.53 (VHH)
VHH: B13 VHH with G109D
notes: as for B3

Kd [4]: 1.6 nM
koff [4]: 0.00059 s⁻¹
kon [4]: 370000 M⁻¹ s⁻¹
B15: Humabody VH 2.39 (VHH)
VHH: B13 VHH with M34E
notes: as for B3

EC50 [6]: 1.3 nM
Kd [2]: 6.89 nM
koff [2]: 0.0385 s⁻¹
kon [2]: 5.5e+06 M⁻¹ s⁻¹
binding result [8]: no binding
EC50 [9]: 18 nM
EC50 [10]: 13 nM
B16: Humabody VH 2.12 (VHH)
VHH: B13 VHH with G55A, D66G, G109D
notes: as for B3

IC50 [3]: 9 nM
IC50 [7]: 13 nM
B17: Humabody VH 2.27 (VHH)
VHH: B13 VHH with G55A, G109D
notes: as for B3

Kd [4]: 3.4 nM
koff [4]: 0.0015 s⁻¹
kon [4]: 450000 M⁻¹ s⁻¹
B18: Humabody VH 2.37 (VHH)
VHH: B13 VHH with M34L
notes: as for B3

Kd [4]: 25 nM
koff [4]: 0.035 s⁻¹
kon [4]: 1.3e+06 M⁻¹ s⁻¹
B19: Humabody VH 2.13 (VHH)
VHH: B13 VHH with G55R, D66G, G109D
notes: as for B3

Kd [4]: 3.3 nM
koff [4]: 0.0022 s⁻¹
kon [4]: 670000 M⁻¹ s⁻¹
IC50 [3]: 6.5 nM
IC50 [7]: 21 nM
B20: Humabody VH 2.52 (VHH)
VHH: B13 VHH with G109V
notes: as for B3
